These are literature values, as cited in article PMC5744648.

Series [1] addresses CMKLR1 (Chemerin1) (Mus musculus) (UniProt P97468). Kind of series: radioligand binding.
Series [2] has as its target GPR1 (Chemerin2) (Homo sapiens) (UniProt P46091). The experiment in a line: radioligand.
The target of series [3] is CMKLR1 (Chemerin1) (Homo sapiens) (UniProt Q99788). The experiment in a line: radioligand.
Series [4] concerns the target GPR1 (Chemerin2) (Homo sapiens) (UniProt P46091). Kind of series: radioligand binding.

Chemerin 21-157, sequence (Q99969 21-157): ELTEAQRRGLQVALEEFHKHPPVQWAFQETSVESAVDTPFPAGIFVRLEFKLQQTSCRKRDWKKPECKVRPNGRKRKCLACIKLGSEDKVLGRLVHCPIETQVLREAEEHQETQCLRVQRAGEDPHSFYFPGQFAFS
GPR1 (Chemerin2) (Homo sapiens), sequence (P46091 whole entry): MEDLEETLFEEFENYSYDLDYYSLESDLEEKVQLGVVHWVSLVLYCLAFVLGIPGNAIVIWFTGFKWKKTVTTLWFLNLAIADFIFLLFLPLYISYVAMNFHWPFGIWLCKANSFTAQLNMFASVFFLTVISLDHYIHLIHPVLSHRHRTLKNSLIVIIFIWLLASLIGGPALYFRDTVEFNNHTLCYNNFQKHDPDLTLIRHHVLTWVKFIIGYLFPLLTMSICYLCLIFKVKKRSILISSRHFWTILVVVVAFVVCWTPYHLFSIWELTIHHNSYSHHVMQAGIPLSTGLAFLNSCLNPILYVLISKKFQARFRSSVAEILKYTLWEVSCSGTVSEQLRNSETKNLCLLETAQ
CMKLR1 (Chemerin1) (Homo sapiens), sequence (Q99788 whole entry): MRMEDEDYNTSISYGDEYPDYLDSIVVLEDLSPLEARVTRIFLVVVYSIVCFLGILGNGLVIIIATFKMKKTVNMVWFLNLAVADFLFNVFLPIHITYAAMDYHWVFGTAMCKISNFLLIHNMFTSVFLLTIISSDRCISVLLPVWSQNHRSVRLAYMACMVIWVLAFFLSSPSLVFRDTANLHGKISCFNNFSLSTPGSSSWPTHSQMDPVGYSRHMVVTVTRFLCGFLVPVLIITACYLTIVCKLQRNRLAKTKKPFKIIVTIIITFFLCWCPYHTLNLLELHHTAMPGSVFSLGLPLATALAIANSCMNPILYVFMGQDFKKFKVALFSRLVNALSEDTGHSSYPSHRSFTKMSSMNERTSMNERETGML
CMKLR1 (Chemerin1) (Mus musculus), sequence (P97468 whole entry): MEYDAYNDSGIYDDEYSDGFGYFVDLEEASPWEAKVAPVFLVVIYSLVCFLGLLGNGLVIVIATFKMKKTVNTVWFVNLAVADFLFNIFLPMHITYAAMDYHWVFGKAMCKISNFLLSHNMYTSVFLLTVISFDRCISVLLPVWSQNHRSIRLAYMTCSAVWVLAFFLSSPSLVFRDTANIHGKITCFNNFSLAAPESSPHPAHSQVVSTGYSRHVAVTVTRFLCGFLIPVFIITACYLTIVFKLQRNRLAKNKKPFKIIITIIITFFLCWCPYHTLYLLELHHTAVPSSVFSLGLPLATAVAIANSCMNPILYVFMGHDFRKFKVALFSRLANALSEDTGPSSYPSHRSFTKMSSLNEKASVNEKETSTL
Chemerin C9 peptide 149-157, sequence (Q99969 whole entry, looked up, tested part not stated): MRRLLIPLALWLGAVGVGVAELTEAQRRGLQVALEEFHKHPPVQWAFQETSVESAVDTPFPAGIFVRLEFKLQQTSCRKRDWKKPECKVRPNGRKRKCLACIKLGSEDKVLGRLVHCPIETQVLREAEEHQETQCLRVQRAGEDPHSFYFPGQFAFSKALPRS
Chemerin 21-148, sequence (Q99969 21-148): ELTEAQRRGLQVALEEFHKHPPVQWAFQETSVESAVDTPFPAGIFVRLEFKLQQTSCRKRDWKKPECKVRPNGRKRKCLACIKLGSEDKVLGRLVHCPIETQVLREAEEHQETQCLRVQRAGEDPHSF

By Kd is commonly meant the free concentration of one partner at which half of the binding sites on the other are occupied at equilibrium, for simple one-to-one binding. On to Chemerin 21-148 (from UniProt Q99969), for which the Kd in series [1] was 1.2 nM.
As for “Chemerin C9 peptide 149-157 (from UniProt Q99969)”, the dissociation constant Kd in series [2] was 5.3 nM.
In the case of Chemerin 21-157 (from UniProt Q99969), the values for the Kd in series [3] and in series [4] were 0.88 nM and 0.21 nM, respectively.
Regarding “Tyr-[Phe149]-chemerin146-157 146-157 (from UniProt Q99969)”, the dissociation constant Kd in series [3] was 22 nM.
